Assay [1] concerns the target T1, human CD28 (human, UniProt P10747 19-152, limits assumed).
T1 construct: also called Cluster of Differentiation 28; Tp44
Put plainly: method not stated; Monovalent CD28 KD, table headed 1A7[CD28] H1_L1.71 (aka 180 nM).

For assay [2], the target named is T2, human mesothelin (MSLN) (human, UniProt Q13421 296-580, limits assumed).
T2 construct: Antigen of the Octet KD values
Put plainly: label in the legend box: nominal affinity of the MSLN binding domain (paragraph 422 calls such label values KD); method not stated on the sheet.

Assay [3] deals with T1, human CD28. Put plainly: label in the legend box: nominal affinity of the CD28 binding domain (paragraph 422 calls such label values KD); method not stated on the sheet.
In assay [4] the target is T2, human mesothelin (MSLN). Put plainly: label in the legend box: nominal affinity of the MSLN binding domain (paragraph 422 calls such label values KD); method not stated on the sheet. This is another data set of the same source.
Assay [5] concerns the target T3, MSLN on OVCAR8 cells (~90K MSLN antigens/cell) (UniProt Q13421 296-598).
T3 construct: whole, on cells; Endogenous expression on a cancer cell line
Put plainly: flow cytometry on OVCAR8 cells, 1 h at 4 C, anti-human-Fc A647 secondary. On the procedure:
In this experiment, 50,000 OVCAR8 cells (˜90K MSLN antigens/cell) were seeded per well in a plate. Anti-human-Fc secondary (A647) was added for 30 min at 4° C., and binding was assessed via FACs. FIG. 39C depicts that the CD28×MSLN bsAbs in neither 1+1-Fab-scFv format nor the 2+1 mAb-scFv format antibodies show any significant off target binding. In this experiment, 50,000 SKOV3 cells (˜9K MSLN antigens/cell) were seeded per well in a plate. Anti-human-Fc secondary (A647) was added for 30 min at 4° C., and binding was assessed via FACs.
In order to assess the binding of MSLN×CD28 bsAbs in different formats, an experiment was conducted in which 50,000 OVCAR8 cells (˜90K MSLN antigens/cell) were seeded per well in a plate. Anti-human-Fc secondary (A647) was added for 30 min at 4° C., and binding was assessed via FACs.

For assay [6], the target named is T1, human CD28. Put plainly: label in the legend box: nominal affinity of the CD28 binding domain (paragraph 422 calls such label values KD); method not stated on the sheet. This is another data set of the same source.

Read-outs that look alike come from different tables or passages of the source.

B1: XENP44474 (bispecific antibody)
chain 1: QVQLVQSGAEVKKPGASVKVSCKASGYTFTSYWMHWVRQAPGQGLEWMGMIHPNSDNTIYYEKFQGRVTMTVDKSISTAYMELSRLRSDDTAVYYCAIIITPVVPKFDYWGQGTLVTVSSASTKGPSVFPLAPSSKSTSGGTAALGCLVKDYFPEPVTVSWNSGALTSGVHTFPAVLQSSGLYSLSSVVTVPSSSLGTQTYICNVNHKPSDTKVDKKVEPKSCGGGGSGGGGSQVQLVQSGAEVKKPGASVKVSCKASGYTFTSYWMHWVRQAPGQGLEWMGMIHPNSDNTIYYEKFQGRVTMTVDKSISTAYMELSRLRSDDTAVYYCAIIITPVVPKFDYWGQGTLVTVSSASTKGPSVFPLAPSSKSTSGGTAALGCLVKDYFPEPVTVSWNSGALTSGVHTFPAVLQSSGLYSLSSVVTVPSSSLGTQTYICNVNHKPSDTKVDKKVEPKSCDKTHTCPPCPAPPVAGPSVFLFPPKPKDTLMISRTPEVTCVVVDVKHEDPEVKFNWYVDGVEVHNAKTKPREEEYNSTYRVVSVLTVLHQDWLNGKEYKCKVSNKALPAPIEKTISKAKGQPREPQVYTLPPSREEMTKNQVSLTCDVSGFYPSDIAVEWESDGQPENNYKTTPPVLDSDGSFFLYSKLTVDKSRWEQGDVFSCSVLHEALHSHYTQKSLSLSPGK
chain 2: not shown
chain 3: DIVMTQSPDSLAVSLGERATINCKASHDVGTSVAWYQQKPGQSPKLLIYWASTRHTGVPDRFTGSGSGTDFTLTISSLQAEDVAVYFCQQYSSYPLTFGAGTKLEIKRTVAAPSVFIFPPSDEQLKSGTASVVCLLNNFYPREAKVQWKVDNALQSGNSQESVTEQDSKDSTYSLSSTLTLSKADYEKHKVYACEVTHQGLSSPVTKSFNRGEC
notes: also called 2+1 Fab2-Fc x scFv-Fc MSLN x CD28 bsAb
In the assay with human CD28 [1], B1 gave a Kd of 4900 nM.

B2: XENP39534 (bispecific antibody)
heavy 1: QVQLVQSGAEVKKPGASVKVSCKASGYTFTSYWMHWVRQAPGQGLEWMGMIHPNSDNTIYYEKFQGRVTMTVDKSISTAYMELSRLRSDDTAVYYCAIIITPVVPKFDYWGQGTLVTVSSASTKGPSVFPLAPSSKSTSGGTAALGCLVKDYFPEPVTVSWNSGALTSGVHTFPAVLQSSGLYSLSSVVTVPSSSLGTQTYICNVNHKPSDTKVDKKVEPKSCDKTHTCPPCPAPPVAGPSVFLFPPKPKDTLMISRTPEVTCVVVDVKHEDPEVKFNWYVDGVEVHNAKTKPREEEYNSTYRVVSVLTVLHQDWLNGKEYKCKVSNKALPAPIEKTISKAKGQPREPQVYTLPPSREEMTKNQVSLTCDVSGFYPSDIAVEWESDGQPENNYKTTPPVLDSDGSFFLYSKLTVDKSRWEQGDVFSCSVLHEALHSHYTQKSLSLSPGK
heavy 2: not shown
light 1: DIVMTQSPDSLAVSLGERATINCKASHDVGTSVAWYQQKPGQSPKLLIYWASTRHTGVPDRFTGSGSGTDFTLTISSLQAEDVAVYFCQQYSSYPLTFGAGTKLEIKRTVAAPSVFIFPPSDEQLKSGTASVVCLLNNFYPREAKVQWKVDNALQSGNSQESVTEQDSKDSTYSLSSTLTLSKADYEKHKVYACEVTHQGLSSPVTKSFNRGEC
light 2: DIVMTQSPDSLAVSLGERATINCKASHDVGTSVAWYQQKPGQSPKLLIYWASTRHTGVPDRFTGSGSGTDFTLTISSLQAEDVAVYFCQQYSSYPLTFGAGTKLEIKRTVAAPSVFIFPPSDEQLKSGTASVVCLLNNFYPREAKVQWKVDNALQSGNSQESVTEQDSKDSTYSLSSTLTLSKADYEKHKVYACEVTHQGLSSPVTKSFNRGEC
notes: also called XENP39534 MSLN (0.3 nM) x CD28 (180 nM) 2+1 mAb-scFv
For the molecule B2, the Kd in the assay with human mesothelin (MSLN) [2] is 0.3 nM; in the assay with human CD28 [3], 180 nM.

B3: XENP39534 (bispecific antibody)
heavy 1: QVQLVQSGAEVKKPGASVKVSCKASGYTFTSYWMHWVRQAPGQGLEWMGMIHPNSDNTIYYEKFQGRVTMTVDKSISTAYMELSRLRSDDTAVYYCAIIITPVVPKFDYWGQGTLVTVSSASTKGPSVFPLAPSSKSTSGGTAALGCLVKDYFPEPVTVSWNSGALTSGVHTFPAVLQSSGLYSLSSVVTVPSSSLGTQTYICNVNHKPSDTKVDKKVEPKSCDKTHTCPPCPAPPVAGPSVFLFPPKPKDTLMISRTPEVTCVVVDVKHEDPEVKFNWYVDGVEVHNAKTKPREEEYNSTYRVVSVLTVLHQDWLNGKEYKCKVSNKALPAPIEKTISKAKGQPREPQVYTLPPSREEMTKNQVSLTCDVSGFYPSDIAVEWESDGQPENNYKTTPPVLDSDGSFFLYSKLTVDKSRWEQGDVFSCSVLHEALHSHYTQKSLSLSPGK
heavy 2: not shown
light 1: DIVMTQSPDSLAVSLGERATINCKASHDVGTSVAWYQQKPGQSPKLLIYWASTRHTGVPDRFTGSGSGTDFTLTISSLQAEDVAVYFCQQYSSYPLTFGAGTKLEIKRTVAAPSVFIFPPSDEQLKSGTASVVCLLNNFYPREAKVQWKVDNALQSGNSQESVTEQDSKDSTYSLSSTLTLSKADYEKHKVYACEVTHQGLSSPVTKSFNRGEC
light 2: DIVMTQSPDSLAVSLGERATINCKASHDVGTSVAWYQQKPGQSPKLLIYWASTRHTGVPDRFTGSGSGTDFTLTISSLQAEDVAVYFCQQYSSYPLTFGAGTKLEIKRTVAAPSVFIFPPSDEQLKSGTASVVCLLNNFYPREAKVQWKVDNALQSGNSQESVTEQDSKDSTYSLSSTLTLSKADYEKHKVYACEVTHQGLSSPVTKSFNRGEC
notes: also called H1_L1.71
Consider B3, for which the affinity with human CD28 [1], expressed as Kd, was 460 nM.

B4: XENP44468 (bispecific antibody)
chain 1: QVQLVQSGAEVKKPGASVKVSCKASGYTFTSYWMHWVRQAPGQGLEWMGMIHPNSDNTIYYEKFQGRVTMTVDKSISTAYMELSRLRSDDTAVYYCAIIITPVVPKFDYWGQGTLVTVSSASTKGPSVFPLAPSSKSTSGGTAALGCLVKDYFPEPVTVSWNSGALTSGVHTFPAVLQSSGLYSLSSVVTVPSSSLGTQTYICNVNHKPSDTKVDKKVEPKSCDKTHTCPPCPAPPVAGPSVFLFPPKPKDTLMISRTPEVTCVVVDVKHEDPEVKFNWYVDGVEVHNAKTKPREEEYNSTYRVVSVLTVLHQDWLNGKEYKCKVSNKALPAPIEKTISKAKGQPREPQVYTLPPSREEMTKNQVSLTCDVSGFYPSDIAVEWESDGQPENNYKTTPPVLDSDGSFFLYSKLTVDKSRWEQGDVFSCSVLHEALHSHYTQKSLSLSPGK
chain 2: not shown
chain 3: DIVMTQSPDSLAVSLGERATINCKASHDVGTSVAWYQQKPGQSPKLLIYWASTRHTGVPDRFTGSGSGTDFTLTISSLQAEDVAVYFCQQYSSYPLTFGAGTKLEIKRTVAAPSVFIFPPSDEQLKSGTASVVCLLNNFYPREAKVQWKVDNALQSGNSQESVTEQDSKDSTYSLSSTLTLSKADYEKHKVYACEVTHQGLSSPVTKSFNRGEC
notes: also called 2+1 Fab2-scFv-Fc MSLN x CD28 bsAb
Turning to B4, in the assay with human CD28 [1], the Kd turned out to be 1200 nM.

B5: XENP39570 (bispecific antibody)
heavy: QVQLVQSGAEVKKPGASVKVSCKASGYTFTSYWMHWVRQAPGQGLEWMGWIHPNSDNTIYYEKFQGRVTMTVDKSISTAYMELSRLRSDDTAVYYCAIIITPVVPKFDYWGQGTLVTVSSASTKGPSVFPLAPSSKSTSGGTAALGCLVKDYFPEPVTVSWNSGALTSGVHTFPAVLQSSGLYSLSSVVTVPSSSLGTQTYICNVNHKPSDTKVDKKVEPKSCDKTHTCPPCPAPPVAGPSVFLFPPKPKDTLMISRTPEVTCVVVDVKHEDPEVKFNWYVDGVEVHNAKTKPREEEYNSTYRVVSVLTVLHQDWLNGKEYKCKVSNKALPAPIEKTISKAKGQPREPQVYTLPPSREEMTKNQVSLTCDVSGFYPSDIAVEWESDGQPENNYKTTPPVLDSDGSFFLYSKLTVDKSRWEQGDVFSCSVLHEALHSHYTQKSLSLSPGK
scFv-Fc: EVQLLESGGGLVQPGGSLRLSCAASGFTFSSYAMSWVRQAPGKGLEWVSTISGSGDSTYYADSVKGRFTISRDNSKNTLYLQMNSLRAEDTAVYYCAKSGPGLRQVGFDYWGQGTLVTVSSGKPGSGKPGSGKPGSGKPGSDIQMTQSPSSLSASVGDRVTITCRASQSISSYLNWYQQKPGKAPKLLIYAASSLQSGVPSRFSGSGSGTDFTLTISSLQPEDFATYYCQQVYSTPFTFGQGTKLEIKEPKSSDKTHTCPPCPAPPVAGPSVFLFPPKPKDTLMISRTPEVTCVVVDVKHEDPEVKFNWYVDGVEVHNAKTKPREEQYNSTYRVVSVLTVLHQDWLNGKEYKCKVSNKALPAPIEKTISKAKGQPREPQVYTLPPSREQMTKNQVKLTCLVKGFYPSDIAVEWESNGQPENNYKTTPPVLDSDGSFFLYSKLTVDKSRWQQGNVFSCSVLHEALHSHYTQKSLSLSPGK
light: DIVMTQSPDSLAVSLGERATINCKASHDVGQSVAWYQQKPGQSPKLLIYWASTRHTGVPDRFTGSGSGTDFTLTISSLQAEDVAVYFCQQYSSYPLTFGAGTKLEIKRTVAAPSVFIFPPSDEQLKSGTASVVCLLNNFYPREAKVQWKVDNALQSGNSQESVTEQDSKDSTYSLSSTLTLSKADYEKHKVYACEVTHQGLSSPVTKSFNRGEC
notes: also called XENP39570 MSLN (90 nM) x CD28 (180 nM) 1+1 Fab-scFv-Fc
As to B5, the Kd amounted to 90 nM with human mesothelin (MSLN) [2] and 180 nM with human CD28 [3].

B6: XENP44469 (bispecific antibody)
heavy 1: QVQLVQSGAEVKKPGASVKVSCKASGYTFTSYWMHWVRQAPGQGLEWMGMIHPNSDNTIYYEKFQGRVTMTVDKSISTAYMELSRLRSDDTAVYYCAIIITPVVPKFDYWGQGTLVTVSSASTKGPSVFPLAPSSKSTSGGTAALGCLVKDYFPEPVTVSWNSGALTSGVHTFPAVLQSSGLYSLSSVVTVPSSSLGTQTYICNVNHKPSDTKVDKKVEPKSCDKTHTCPPCPAPPVAGPSVFLFPPKPKDTLMISRTPEVTCVVVDVKHEDPEVKFNWYVDGVEVHNAKTKPREEEYNSTYRVVSVLTVLHQDWLNGKEYKCKVSNKALPAPIEKTISKAKGQPREPQVYTLPPSREEMTKNQVSLTCDVSGFYPSDIAVEWESDGQPENNYKTTPPVLDSDGSFFLYSKLTVDKSRWEQGDVFSCSVLHEALHSHYTQKSLSLSPGK
heavy 2: not shown
light 1: DIVMTQSPDSLAVSLGERATINCKASHDVGTSVAWYQQKPGQSPKLLIYWASTRHTGVPDRFTGSGSGTDFTLTISSLQAEDVAVYFCQQYSSYPLTFGAGTKLEIKRTVAAPSVFIFPPSDEQLKSGTASVVCLLNNFYPREAKVQWKVDNALQSGNSQESVTEQDSKDSTYSLSSTLTLSKADYEKHKVYACEVTHQGLSSPVTKSFNRGEC
light 2: DIVMTQSPDSLAVSLGERATINCKASHDVGTSVAWYQQKPGQSPKLLIYWASTRHTGVPDRFTGSGSGTDFTLTISSLQAEDVAVYFCQQYSSYPLTFGAGTKLEIKRTVAAPSVFIFPPSDEQLKSGTASVVCLLNNFYPREAKVQWKVDNALQSGNSQESVTEQDSKDSTYSLSSTLTLSKADYEKHKVYACEVTHQGLSSPVTKSFNRGEC
notes: also called XENP44469 MSLN (0.3 nM) x CD28 (180 nM) 2+1 Fab2-scFv-Fc
Regarding B6, the Kd with human mesothelin (MSLN) [4] came out at 0.3 nM; in the assay with human CD28 [6], 180 nM. The “EC50 (read off the curve)” value in assay [5] was approximately 4 ng/mL.

The record behind these values is patent publication US20230340128A1 (Xencor, published 2023).
